Assay results published in a protein production outcome set (Wang et al. 2014).

Test: label from the status in PepcDB records

Row | Sequence | protein production
1 | MTQRRAMLILHGKQSLNEDVRDAVADKRKQGWELDVRLTWEAGDAQRLVNEALAAGHRHIVAGGGDGTLRDIAEALALAATKASLTILPLGTANDFARAAGVPLDVSKALQLMDVAPRAVDLGEVGGKLFLNMATGGFGSQVTANTSEDLKKVLGGAAYLFTGLTRFSELHAAHGELTGPDFHWRGDLLALGIGNGRQAGGGHELCPTALADDGLLDISILPAPQEVVGTLRSLLEGGLGIDNMFIRARLPWVELKSAQGLDINLDGEPLSGEDLRFVARPGALQVHLPANSPVLGSTPLLNRPD | not failed
2 | MPDTPAEGYGNTLSSLALDHNWRTIYPLGAYQLSGLAWVDPQALWLRQLPRLPFCQATLGASFLALDRVRGFILLINGENDHSEILNPYDLEPFLDANGLCLYRETLWFCRDTWLYRCHLPDWHVEKMLECRYPIYGVAVDETGIYVACQKSGYIHCFDETGREQYRLSAPGIGCENLALKDGYLWVSDRLEQSIYCLDRHSGHVEWVALTPFAQPTAFTFDATGQLWVAYGGEEAYLRDNPNNREAPLEIDYRDICLIHPLLYHTHREQHYTLSNGYLIEMAYVEELSPLDALHLDNLEWRIALPANSPRQKLLRVEPVGTPFRLETVADQQVAVFDFPELRPYEARLFGWRAWLEVRGMKYHLSFDNIDETQPLPSEFAAQYLVDNDELAMDQPIVQEAAREAVGTETNILRKMLKIRNYVYDRLSYAMRPTIETPDVVLKRGTGSCGEYVGVLLALARLNGIACRTVGRYKCPPYPQKRGIPLQPTYNHVWLEFYVPGVGWVPMESNPDDVVERGPYPTRFFMALPWYHVEVGKGIRFETTNYRDRGVRLGDLALNHVRFTIHSELPPLLLEHHHHHH | failed
3 | MSIWSPLLFNAEGKKQGYDCRYLHKLTDQGNKLSDSGLPVIFTLAHLCAMAGVSFSLIHSCVSRKYDPYRSFTIKKRSGGYRQIVVPEPELMHLQRWINEFILKRAKVHSCAAAYISGSDIKMNASKHLGANWLIKLDIQRFFESISELQVYYIFHRLGYPKLLSFEMARICTRVDTQSNRHFRPRWNNRIHHFEILEYCDSRVGYLPQGAPTSPSLSNLTCRKLDKEIYDLSCRSDCRYTRYADDFAFSFIDLDREKASNFVNQVSRIISSYGFRKNARKTKIIPPGSKKIITGLVLGNGKVHLQKELKDYIRQNIYFATKYGVDEHCKKRGFVSIDGFYNHLEGIVNFALFIEPDFGEKAFEEFRAIKWPSLIVGLHA | failed
4 | MADGATAVRRGLSGATRLSARFTADAETGTRQGMQALPTSRRLCASLRSLPERALAMLPAVVLALLPVIAMLLALAPGNARVAEDCALRVEGQARHADDQRIMSTVRALAQALGEVAQATPPDEREAKLIRSISPVRYGEGPWDYVILSRGTVHLYTPGMEGAAGVDFANATDARGVPFVQEMQSRAVLGGGFTEWTARRADGSTETRRVYSLVVPGTEYWLGAWTTPDGATTAKNEARNGVLITADHAAHRAALWGIMAGLPAALVLHRLLTASQRLRQEKDRR | failed
5 | MVSNGSIIHVNQNQFMMLVDGGKIVDYTAEPGYFKVENSASPSLFGGQFGDALKETFSRFKFGGTTPMKQEVFYVNLQEIKGIKFGTPNPLQYFDNFYNAELFLRTFGNYSIKITDPIKFFKEACPRDAENVHIDEINEQYLSEFLEALQAAISQMSMEGERISFIPSKGTVLSKHMSEILDDSWKELRGMEVLSVGIASISYDDESKELINMRNKGAMLGDPGVREGYVQGSIARGMEAAGSNQAGAGMAFMGMGMGMNAAGGFMGQASQTNMQQMQMNQAAQRAAQGAGQQQGAGAKAAGEWFCTECGHKNTGKFCAECGTPKPQGSGCPSCGAELKAGAKFCPECGTKLLEHHHHHH | not failed
6 | MRALIRYEDVPSKLWTLPKMTDFWGIGKRTEKRLNKLGISSIKELTNADPLLLKQKLGTIGLQHFFHANGIDESNVRLEHHHHHH | failed
7 | MLINKTKRAEQNLNNLPFLALQAEQIEFLGSSAEFKTQIIELIRNAKKRIYVTALYWQKDEAGQEILDEIYRVKQENPHLDVKVLIDWHRAQRNLLGAEKSATNADWYCEQRQTYQLPDDPNMFFGVPINTREVFGVLHVKGFVFDDTVLYSGASINNVYLHQFEKYRYDRYQKITHAELADSMVNFINDYLLDFSAVYPLDVTNRPRTKEIRGNIRAYRKDLAQNGEYSLKSAVKLPNVLSVSPLFGLGASGNELNQVIEDLFLQVQKKLVICTPYFNFPRTLQHKIATLLENGKRVEIIVGDKVANDFYIPPEQPFKMAGALPYLYESNLRRFCEKFETQIESGQLVVRLWRDGDNTYHLKGVWVDDRYILLTGNNLNPRAWRLDAENGLLIYDPQQQLLAQVEKEQNQIRQHTKVLKHYTELEELNQYPEPVQKLLKKFARIKADKLVKMIL | not failed
8 | MTTATSERQKTLLFKAAERQWKEEFAGKETDIRKVDCNIYKGILYQLEIRQVFLDTSLSLKKLSALLETNQTYLSNVVNKYFGCNLKELVNTYRVEYAKELLCSRRCALTELPCSCGFASKSAFYSAFSRIVGVSPLSYQTQERRLEHHHHHH | not failed
9 | MHSPLELTLVLLAAAVIGVVLFRMLQLPPMLAYLVVGVVIGPNATGLESDSAQTRYLAEFGVVFLMFSIGLEFSLAKLRSMRRLVLGLGASQVVLTMLLTVPASLLLSRWYPLSWQASLALGGALAMSSTAIVSKMLAERLQLETEHGRNIISVLLFQDLAVVLLLIVVPSLGKNPTDLVLTLSIAAVKIIVALVLILFLGQKLLSRWFHLVAARRSQELFMLNLLLVTLGMAALTERLGLSMALGAFLAGMLVSETPYRLQVEEDIKPFRDVLLGLFFVTVGMLLDPRVVIGHWGLVIGLVIGPVLFKFALIALLARAFGSGGGTAIRTALGLAQAGEFGFVLLNQIDGMRLIDPLLSQAILAAMLLSMLLAPFLIQYSDAIAMRLSRTDWLMQSLAMTKIAAQSLQTERHVIICGYGRSGQNLAHMLEQEDISYVALDLDPDRVRDAAAAGERVVYGDAARRESLVAAGVHRAAAVAVTYADTASALKVLHHVQALAPTLPVIVRTIDDADLDRLQQAGAAEVVPEIIEGSLMLASHALVLLGVPLRRVVRRAQEMRDARYGLLRGYFHGQDDDEDMLERDAVRLHSVPLIKGSPAIGRPLGTLGLETFKTSVTAIRRQGIRALDPEPNTLLELGDIVVLRGTPDGLQQAEERLSPR | failed
10 | LLTSQIVDQYAEHIFYNSGAVGMALVVIDNNQVVNRSFGETQPGNNIRPRPDSLIRIASITKLMTSEIMVKLADDGIVKLTDPLKKYAPKGVNVPSYSAKQPIRLLHLASHTSGLPREQPGGPQKRPVFTWPTKDNRWQWLKLAKVTVPPGVKAAYSNLAYDLLADALSRAAGKPYAHLLRDKITAPLGMKNTTLTPTAEQCKRLMIGVGSSRCGNTVAAAGSGGIYSTPEDMQHWMQQFLASDNSAPKRSAKREQALYFQRGDLVSLKGMDVAGQADALGLGWVYMAPKADLPGIMQKTGGGGGFITYMAMVPEKNIGVFVVVTRSQLTKFSNMSDGVNQLVAELVK | not failed
11 | MKFHVIDRENWNREQYFEHYLELKCTFSMTVNVDITLLIKKVHQKGIKFYPTFIYIISRIINKHKEFRTCFNDEGVLGYWEEMIPSYTIFHKDDKSFSSIWTDYSSDFRIFYKNYEEDMRCYASVHGLLTKENIPPNIFPISGIPWTSFTGFNLNINNDGDFLLPIITCGKYFNEENKIMLPVSLQVHHSVCDGYHVSRFIEDLQELSNSCNEWLK | failed
12 | GREQMASFESAYVALSRMKQHVQVYTDNREGWIKAIKNSPEKATAHDILEPRNDRAVKTADLLFGRARPLDETAAGRAALQQSGLAQGSSPGKFISPGKKYPQPHVALPAFDKNGKAAGIWLSPLTDRDGRLEAIGGEGRIMGNEDARFVALQNSRNGESLLAGNMGEGVRMARDNPDTGVVVRLAGDDRPWNPGAMTGGRVWAEPAPVAPVPQAGADIILPPEVLAQRAAEEQQRREMEKKAEQTAREMAGEARKAG | failed
13 | MSTLKLFVHNHSSKGDQSFLKTITFAITHFTVAFTVAYLLTGDILIGSLIAMVEPAINTVAYFFHEKIWARHQRNTTANAMNLRQNTH | failed
14 | MKLHLEIWRQAGPNSEGHFEPIDVNDAVPQMSVLELLDHVNTGLIEEGKEPFVFASDCREGICGTCGLLVNGRPHGLDKNKPSCQQRLDHVPDGSTLKIEPLRSAAYPVVKDLLVDRSALDRVLEKGGFVSINAGTAPDADTLHQNHESAELALDH | failed
